Like-named read-outs stand apart in the source and are kept apart here.
How the values were obtained:
isolated human HDL = test: Formation of pre-β like particles: displacement of human ApoA-I from isolated human HDL; type: binding; conditions: increasing peptide:HDL mass ratio
Method: Human HDL was isolated by KBr density ultra centrifugation at density d=1.21 g/ml to obtain top fraction followed by Superose 6 gel filtration chromatography to separate HDL from other lipoproteins. Isolated HDL was adjusted to a final concentration of 1.0 mg/ml with physiological saline based on protein content determined by Bradford protein assay. An aliquot of 300 μl was removed from the isolated HDL preparation and incubated with 100 μl ^14C-labeled peptide 4 (0.2-1.0 μg/μl) for two hours at 37° C. Five separate incubations were analyzed including a blank containing 100 μl physiological saline and four dilutions of ^14C-labeled peptide 4: (i) 0.20 μg/μl peptide:HDL ratio=1:15; (ii) 0.30 μg/μl peptide:HDL ratio=1:10; (iii) […] peptide:HDL ratio=1:5; and (iv) 1.00 μg/μl peptide:HDL ratio=1:3. Following the two hour incubation, a 200 μl aliquot of the sample (total volume=400 μl) was loaded onto a Superose 6 gel filtration column for lipoprotein separation and analysis, and 100 μl was used to determine total radioactivity loaded. The conditions for all FPLC chromatographies were as described in Section 9.4, infra.

HDL in human plasma = conditions: for Radioactivity in 300 μl: 50 μl value multiplied by 6
Method: Human plasma (2 ml) was incubated with 20, 40, 60, 80, and 100 μg of ^14C-labeled peptide peptide 4 for 2 hr. at 37° C. The lipoproteins were separated by adjusting the density to 1.21 g/ml and centrifugation in TLA 100.3 rotor at 100,000 rpm (300,000 g) for 36 hr. at 4° C. The top 900 μl (in 300 μl fractions) was taken for the analysis. 50 μl from each 300 μl fraction was counted for radioactivity and 200 μl from each fraction was analyzed by FPLC (Superose 6/Superose 12 combination column).

[1] = Method: […] (test sample). Delipidation was carried out by extracting the lipids with an equal volume of 2:1 (v/v) chloroform:methanol.
The samples were loaded onto a reverse-phase C18 HPLC column and eluted with a linear gradient (25-58% over 33 min.) of acetonitrile (containing 0.1% TFA). Elution profiles were followed by absorbance (220 nm) and radioactivity.

## PVLDLFRELLNELLEALKQKLK [peptide 4]
Isolated human HDL
  displacement of native ApoA-I from HDL (in words): a displacement of ApoA-I was observed which increased with increasing concentration of peptide
HDL in human plasma; 20 μg peptide in 2 ml human plasma, Fraction No. 1
  Radioactivity in 50 μl: 1407 cpm
HDL in human plasma; 20 μg peptide, Fraction No. 1
  Recovery: 71.6%
  Radioactivity in 300 μl: 8442 cpm
HDL in human plasma; 20 μg peptide, Fraction No. 2
  Radioactivity in 50 μl: 405 cpm
  Recovery: 20.6%
  Radioactivity in 300 μl: 2430 cpm
HDL in human plasma; 20 μg peptide, Fraction No. 3
  Radioactivity in 50 μl: 152 cpm
  Recovery: 7.7%
  Radioactivity in 300 μl: 912 cpm
HDL in human plasma; 40 μg peptide, Fraction No. 1
  Radioactivity in 50 μl: 2538 cpm
  Recovery: 70.4%
  Radioactivity in 300 μl: 15228 cpm
HDL in human plasma; 40 μg peptide, Fraction No. 2
  Radioactivity in 50 μl: 721 cpm
  Recovery: 20%
  Radioactivity in 300 μl: 4326 cpm
HDL in human plasma; 40 μg peptide, Fraction No. 3
  Radioactivity in 50 μl: 347 cpm
  Recovery: 9.6%
  Radioactivity in 300 μl: 2082 cpm
HDL in human plasma; 60 μg peptide, Fraction No. 1
  Radioactivity in 50 μl: 4492 cpm
  Recovery: 75.5%
  Radioactivity in 300 μl: 26952 cpm
HDL in human plasma; 60 μg peptide, Fraction No. 2
  Radioactivity in 50 μl: 1107 cpm
  Recovery: 18.6%
  Radioactivity in 300 μl: 6642 cpm
HDL in human plasma; 60 μg peptide, Fraction No. 3
  Radioactivity in 50 μl: 354 cpm
  Recovery: 5.9%
  Radioactivity in 300 μl: 2124 cpm
HDL in human plasma; 80 μg peptide, Fraction No. 1
  Radioactivity in 50 μl: 4715 cpm
  Recovery: 60%
  Radioactivity in 300 μl: 28290 cpm
HDL in human plasma; 80 μg peptide, Fraction No. 2
  Radioactivity in 50 μl: 2251 cpm
  Recovery: 28.6%
  Radioactivity in 300 μl: 13506 cpm
HDL in human plasma; 80 μg peptide, Fraction No. 3
  Radioactivity in 50 μl: 851 cpm
  Recovery: 11.3%
  Radioactivity in 300 μl: 5346 cpm
HDL in human plasma; 100 μg peptide, Fraction No. 1
  Radioactivity in 50 μl: 5424 cpm
  Recovery: 67.5%
  Radioactivity in 300 μl: 32544 cpm
HDL in human plasma; 100 μg peptide, Fraction No. 2
  Radioactivity in 50 μl: 1708 cpm
  Recovery: 21.2%
  Radioactivity in 300 μl: 10248 cpm
HDL in human plasma; 100 μg peptide, Fraction No. 3
  Radioactivity in 50 μl: 907 cpm
  Recovery: 11.3%
  Radioactivity in 300 μl: 5442 cpm
[1]; 8 day incubation in human serum, 37° C.
  peptide remaining intact: more than 80%
[1]; human plasma, 8 days at 37° C.
  degraded peptide (3 min. peak), share of total radioactivity: approximately 15%
